Values of other authors, collected in patent US11376231B2, “Compositions of bioactive fulvate fractions and uses thereof” (OMNI BIOCEUTICAL INNOVATIONS, INC., priority 2016, dated 2022).
Where two headings read alike, the source gives them in different places.

System: chronic wounds
Design: key: N.S. = not statistically significant

Molecule | Results (venous (36), 2.5 μg/cm^2 three times per week, Robson et al.) | Results (pressure (20), 1, 10, and 100 μg/mL daily, Robson et al.) | Results (pressure (45), 1 and 3 μg/mL daily, Mustoe et al.)
TGF-β2: transforming growth factor-β2 (protein, UniProt P61812 303-414, looked up, Transforming growth factor beta-2) Transforming growth factor …: ALDAAYCFRNVQDNCCLRPLYIDFKRDLGWKWIHEPKGYNANFCAGACPYLWSSDTQHSRVLSLYNTINPEASASPCCVSQDLEPLTILYYIGKTPKIEQLSNMIVKSCKCS | N.S. | – | –
PDGF-BB: platelet-derived growth factor BB (protein, UniProt P01127 82-190, looked up, homodimer) Platelet-derived growth …: SLGSLTIAEPAMIAECKTRTEVFEISRRLIDRTNANFLVWPPCVEVQRCSGCCNNRNVQCRPTQVQLRPVQVRKIEIVRKKPIFKKATVTLEDHLACKCETVAAARPVT | – | N.S. | N.S.
